Data on eight molecules can be found in patent US20230174648A1 (published 2023).

One may read the Kd as the constant that tells how readily two partners part at equilibrium.

Experiment [1] deals with T1, human SIRPα V1-His monomer protein (human, UniProt P78324 31-373).
T1 construct: SIRP-His monomer used as analyte in BLI (Octet); also called SIRP-His; monomeric human SIRPα; not shown: His tag
Put plainly: BLI (ForteBio Octet), antibody on AMC biosensor, SIRP-His monomer 100/33.3/11.1 nM, 1:1 model, averaged KD. On the technique in general: In BLI a coated tip is dipped into the sample, and binding shifts an interference pattern.

In experiment [2] the target is T2, human SIRPβ1-His monomer protein (human, UniProt O00241 30-371).
T2 construct: also called SIRP-His; monomeric human SIRPβ1; not shown: His tag
The description is as above.

For experiment [3], the target named is T3, cynomolgus monkey SIRPα, extracellular domain (cynomolgus monkey, UniProt A0A2K5VYQ9 31-372).
T3 construct: extracellular domain; Monomeric protein in SPR; also called Cyno SIRPα; monomeric cynomolgus monkey SIRPα
Put plainly: SPR (BIACORE), antibody captured, monomeric SIRPα as analyte. In general terms: Surface plasmon resonance follows binding to a sensor surface in real time, without labels.

For experiment [4], the target named is T4, human SIRPα V1, extracellular domain (human, UniProt P78324 31-373).
T4 construct: also called hSIRPα V1; monomeric human SIRPα
Put plainly: SPR (BIACORE), antibody captured on chip, monomeric SIRPα ECD as analyte, 1:1 model.
Protocol: (§1) The affinities of these SIRPα antibodies were determined using surface plasmon resonance. The SIRPα antibodies were flowed onto a chip and captured by an anti-human IgG covalently coupled to the surface of the chip. A three-point titration of the extracellular binding domain of hSIRPα was performed per the manufacturer’s recommended protocols.

Experiment [5] has as its target T3, cynomolgus monkey SIRPα, extracellular …. Put plainly: SPR (BIACORE), antibody captured on chip, monomeric SIRPα as analyte, 1:1 model.
Protocol: as §1
Experiment [6] has the same target. Nature of the experiment: SPR (BIACORE), antibody captured by anti-human IgG, monomeric SIRPα as analyte, 1:1 model.
Protocol: as §1
Experiment [7] addresses T4, human SIRPα V1, extracellular domain. Nature of the experiment: SPR (BIACORE), antibody captured by anti-human IgG, monomeric SIRPα ECD as analyte, 1:1 model.
Protocol: as §1
The target in experiment [8] is T5, human SIRPα V2, extracellular domain (human, UniProt P78324 31-373).
T5 construct: also called hSIRPα V2
The description is as above.
Protocol: as §1

T2 sequence (O00241 30-371 limits assumed): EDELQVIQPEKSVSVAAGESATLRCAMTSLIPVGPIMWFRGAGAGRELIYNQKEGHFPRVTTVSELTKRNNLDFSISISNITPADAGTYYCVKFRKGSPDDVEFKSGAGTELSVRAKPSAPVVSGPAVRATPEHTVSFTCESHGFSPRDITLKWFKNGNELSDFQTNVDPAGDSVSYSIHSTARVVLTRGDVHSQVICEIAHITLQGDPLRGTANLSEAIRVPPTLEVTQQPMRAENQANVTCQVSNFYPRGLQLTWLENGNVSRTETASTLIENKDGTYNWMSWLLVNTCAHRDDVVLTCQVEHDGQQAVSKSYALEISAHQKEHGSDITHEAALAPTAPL

B1: Antibody 19 (antibody, mouse IgG1, V domains shown)
VH: QVQLQQSGAELVRPGASVTLSCKASGYTFTDYEMHWVKQTPVHGLEWIGAIDPETGGTAYNQKFKGKATLTADKSSSTAYMELRSLTSEDSAVYYCTGITRFAYWGQGTLVTVSA
VL: SIVMTQTPKFLLVSAGDRVTITCKASQSVSNDVAWYQQKPGQSPKLLIYYASNRYTGVPDRFTGSGYGTDFTFTISTVQAEDLAVYFCQQDYSSPWTFGGGTKLEIK
notes: Mouse IgG1 Fc
In the case of B1, the figures for the Kd in experiment [1] and in experiment [2] were 3.79 nM and 75.9 nM, respectively.

B2: Antibody 17 (antibody, mouse IgG2a, V domains shown)
VH: EVQVVESGGGLVKPGGSLKISCAASGFAFSSYDMSWVRQTPEKRLEWVAYISSGGGSIYYAETVKGRFTISRDNAKNTLYLQMSSLKSEDTAMYYCVRHGYHEYFDVWGAGTTVTVSS
VL: DVLMTQTPLSLPVSLGDQASISCRSSQSIVHSNGNTYLEWYLQKPGQSPKLLIYKVSNRFSGVPDRFSGSGSGTDFTLKISRVEAEDLGVYFCFQGSHFPYTFGGGTKLEIK
notes: Mouse IgG2a Fc
B2: binding in experiment [1] was characterised by a dissociation constant (Kd) of 206 nM.

B3: Antibody 16 (antibody, mouse IgG2a, V domains shown)
VH: QVQLQQSGAELAKPGASVKMSCKASGYTFTSYWMHWVKQRPGQGLEWIGYIDPSTGYTFHNQKFKDKATLTADKSSTTAYMQLRSLTSEDSAVYYCARRDYGSSFYAMDYWGHGTSITVSS
VL: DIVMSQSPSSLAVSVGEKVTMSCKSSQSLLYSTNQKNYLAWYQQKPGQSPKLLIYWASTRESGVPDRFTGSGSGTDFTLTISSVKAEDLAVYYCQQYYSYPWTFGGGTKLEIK
notes: Mouse IgG2a Fc
Turning to B3, the Kd worked out at 1.21 nM in experiment [1] and 83.9 nM in experiment [2].

B4: Antibody 2 (antibody, V domains shown)
VH: QVQLVQSGAEVKKPGASVKVSCKASGYTFTGYYIFWMRQAPGQGLEWMGWINPNSGGTDYAQKFQGRVTMTMDTSISTAYMELSRLRSDDTAVYYCAREDCTSISCSFDYWGQGTLVTVSS
VL: not shown
notes: Human variable region with rat IgG2b Fc
With B4, the binding result in experiment [3] is “no binding”. For the same molecule, the equilibrium dissociation constant (Kd) in experiment [4] was 89.5 nM; in experiment [1], 11 nM; in experiment [2], 3620 nM.

B5: Antibody 5 (antibody, rat IgG2b, V domains shown)
VH: QVQLVESGGGVVQPGRSLRLSCAASGFTFSNYGMHWVRQAPGKGPEWVAVIWYDGSYKYYGDSVKGRFTISRDNSKNTLYLQMNSLRAEDTAVYYCVRESVGYSSGWSFDYWGQGILVTVSS
VL: DIQMTQSPSTLSASVGDRVTITCRASQSISSWLAWYQQKPGKVPKLLIYKASSLKTGVPSRFSGNGSGTEFTLTISSLQPDDFATYYCQQYNSYSWTFGQGTKVEIK
notes: as for B4
B5 yielded a Kd in experiment [1] of 17.3 nM.

B6: Antibody 6 (antibody, rat IgG2b, V domains shown)
VH: EVQLLESGGGLVQPGGSLRLSCAASGFTLSSYAMSWVRQAPGKGLEWVSISSGSGANTYNADSLKGRFTISRDNSKNTLFLQMNSLRAEDTAVYYCARLRFFDWFDYWGQGALVTVSS
VL: QAVVTQESALTTSPGETVTLTCRSSTGAVTTSNYANWVQEKPDHLFTGLIGGTNNRTPGVPARFSGSLIGDKAALTITGAQTEDEAIYFCALWYSNHWVFGGGTKLTVL
notes: as for B4
With B6, the Kd in experiment [5] stood at 56.1 nM; in experiment [4], 4.1 nM; in experiment [1], 1.21 nM; in experiment [2] it was 0.456 nM.

B7: Antibody 22 (antibody, V domains shown)
VH: EVQLLESGGGLVQPGGSLRLSCAASGFTLSSYAMSWVRQAPGKGLEWVSISSGSGANTYNADSLKGRFTISRDNSKNTLFLQMNSLRAEDTAVYYCARLRFFDWFDYWGQGALVTVSS
VL: QAVVTQESALTTSPGETVTLTCRSSTGAVTTSNYANWVQEKPDHLFTGLIGGTNNRTPGVPARFSGSLIGDKAALTITGAQTEDEAIYFCALWYSNHWVFGGGTKLTVL
notes: Same variable domains as Antibody 6 with human IgG1 Fc
Consider B7, for which the Kd in experiment [6] is 35.5 nM; in experiment [7], 2.59 nM; in experiment [8], 11.5 nM.

B8: Antibody 27 (antibody, V domains shown)
VH: EVQLLESGGGLVQPGGSLRLSCAASGFTLSSYAMSWVRQAPGKGLEWVSISSGSGANTYNADSLKGRFTISRDNSKNTLFLQMNSLRAEDTAVYYCARLRFFDWFDYWGQGALVTVSS
VL: QAVVTQESALTTSPGETVTLTCRSSTGAVTTSNYANWVQEKPDHLFTGLIGGTNNRTPGVPARFSGSLIGDKAALTITGAQTEDEAIYFCALWYSNHWVFGGGTKLTVL
Regarding B8, the Kd in experiment [6] worked out at 30.6 nM; in experiment [7], 2 nM.
